Data taken from US20240043824A1 (UNIVERSITE DE LORRAINE, published 2024).

Target: the molecule itself
Experiment: ITC dilution of a 100 µM stock at 25° C.; self-association of the decamer, no CTC could be determined

B1: Prx1 from Pyrococcus furiosus (Pfu-Prx) in which the cysteine residues have been mutated into serine residues (enzyme)
chain: MIVIGEKFPEVEVKTTHGVIKLPDHFTKQGKWFMLFSHPADFTPVSTTEFYGLQIRLEKFRELGVEPIGLSVDQVFSHLKWMEWIKEKLGVEIEFPVIADDRGDLAEKLGMIPSGSTITARAVFIVDDKGIIRAIVYYPAEVGRDWDEILRLVKALKISTEKGVALPHKWPNNELIGDKVIVPPASSVEQIKEREEAKAKGEIESYDWWFSYKKLE
notes: not described
- binding result: binds
